From US8846873B2, “Antibodies directed to GPNMB and uses thereof” (Celldex Therapeutics, Inc., priority 2004, dated 2014)

B1: Mab2.22.1: human anti-GPNMB antibody; VH SEQ ID NO: 164, VL SEQ ID NO: 173 (antibody, listed as Homo sapiens, V domains shown)
VH: QVQLEQSGPGLVKPSQNLSLTCTVSGGSISSGGYFWSWIRQHPGKGLEWIGYIYYSGNTYYNPSLKSRVTISVDTSKNQFSLKLSSVTAADTAVYYCARDYYYDTSGFSYRYDWYYGMDVWGQGTTVTVSSA
VL: DIQLTQSPSSLSASVGDRVTITCRASQGIRNDLGWYQQKPGKAPKRLIYAASSLQNGVPSRFSGSGSGTEFTLTISSLQPEDFATYYCLQHNTYPAFGQGTKVEIKR
B2: Mab1.2.2: human anti-GPNMB antibody; VH SEQ ID NO: 38, VL SEQ ID NO: 47 (antibody, listed as Homo sapiens, V domains shown)
VH: ITLKESGPTLVKPTQTLTLTCTFSGFSLSAGGVGVGWIRQPPGKALEWLALIYWNDDKRYSPSLRSRLTITKDTSKNQVVLTITNMDPVDTATYYCAHSHYDYDWGSYFDYWGQGTLVTVSSA
VL: DIVMTQTPLSLPVTPGEPASISCRSSQSLLDSDDGNTYLDWYLQKPGQSPQLLIYTLSYRASGVPDRFSGSGSGTDFTLNISRVEAEDVGVYYCMQRIEFPITFGQGTRLEIKR
B3: Mab1.7.1: human anti-GPNMB antibody; VH SEQ ID NO: 56, VL SEQ ID NO: 65 (antibody, listed as Homo sapiens, V domains shown)
VH: QVQLQESGPGLVKPSQTLSLTCTVSGGSISSANYYWTWIRQHPGKGLEWIGYIYYSGSTYCNPSLKSRVIISVDTSKNQFSLKLSSVTAADTAVYYCARGYNWNYFDYWGQGTLVTVSSA
VL: DIVMTQSPATLSVSPGERATLSCRASQSVSSNLAWYQERPGQAPRLLIYGASTRATGIPARFSGSGSGTEFTLTISSLQSEDFAVYYCQQYNKWPPWTFGQGTKVEIER
B4: Mab1.10.2: human anti-GPNMB antibody; VH SEQ ID NO: 2, VL SEQ ID NO: 11 (antibody, listed as Homo sapiens, V domains shown)
VH: QVQLQESGPGLVKPSETLSLTCTVSGDSISNYYWSWIRQPPGKGLEWIGYFYYSGSTNYNPSLKSRVTISVDTSKNQFSLKLSSVTAADTAVYYCARDRGWADYWGQGTLVTVSSA
VL: EIVLTQSPGTLSLSPGERATLSCRTSQSISSSYLAWYQQKPGQVPRLLIYGASSRATGIPDRFSGSGSGTDFTLTISRLEPEDFAVYYCQQYGSSITFGQGTRLEIKR

Key:
GPNMB [1] = biological target: T1, GPNMB (Homo sapiens, UniProt Q14956); test: Binning of antibodies (Luminex competitive binding); conditions: three bins of six anti-GPNMB antibodies
T1 construct: made in house; host or cells: HEK 293
T1 sequence (Q14956 23-492): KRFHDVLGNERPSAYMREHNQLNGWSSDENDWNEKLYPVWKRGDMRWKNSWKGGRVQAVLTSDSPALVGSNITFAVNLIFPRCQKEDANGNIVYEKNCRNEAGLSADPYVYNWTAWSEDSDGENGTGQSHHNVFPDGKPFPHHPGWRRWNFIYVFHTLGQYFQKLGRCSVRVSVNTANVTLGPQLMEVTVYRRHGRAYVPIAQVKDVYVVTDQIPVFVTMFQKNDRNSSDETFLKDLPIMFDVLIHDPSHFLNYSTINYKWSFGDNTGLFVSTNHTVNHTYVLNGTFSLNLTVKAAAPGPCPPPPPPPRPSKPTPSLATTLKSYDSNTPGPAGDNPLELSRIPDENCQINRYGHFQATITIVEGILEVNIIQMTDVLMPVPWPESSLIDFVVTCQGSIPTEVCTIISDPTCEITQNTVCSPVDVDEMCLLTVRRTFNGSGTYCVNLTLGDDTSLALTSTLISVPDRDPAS
Method: Certain antibodies, described herein were binned in accordance with the protocol described in U.S. Patent Application Publication No. 20030157730. MxhIgG conjugated beads are prepared for coupling to primary antibody. The volume of supernatant needed is calculated using the following formula: (n+10)×50 μL (where n=total number of samples on plate). Where the concentration is known, 0.5 μg/mL is used. Bead stock is gently vortexed, then diluted in supernatant to a concentration of 2500 of each bead per well or 0.5×10^5/mL and incubated on a shaker in the dark at RT overnight, or 2 hours if at a known concentration of […]. Following aspiration, 50 μL of each bead is added to each well of filter plate, then washed once by adding 100 μL/well wash buffer and aspirating. Antigen and controls are added to filter plate 50 μL/well then covered and allowed to incubate in the dark for 1 hour on shaker. Following a wash step, a secondary unknown antibody is added at 50 μL/well using the same dilution (or concentration if known) as is used for the primary antibody. The plates are then incubated in the dark for 2 hours at RT on shaker followed by a wash step. Next, 50 μL/well biotinylated mxhIgG diluted 1:500 is added and allowed to incubate in the dark for 1 hour on shaker at RT. […]

[2] = system: normal and tumor human tissue microarrays; test: GPNMB immunohistochemistry (IHC) analysis
Method: Anti-GPNMB monoclonal antibodies were evaluated for reactivity with frozen and fixed tissue specimens. Tissue sections (5 μm) were cut from formalin fixed and paraffin embedded tissue samples and were rehydrated through incubations in xylene and a graded ethanol series terminating in PBS. Endogenous peroxidase activity was quenched in a 3% solution of hydrogen peroxide in methanol.
Tissue sections were blocked in blocking buffer (5% BSA (Sigma), 1% goat serum (Jackson Immunolabs, West Grove, Pa.) in PBS) for 1 hour. Primary and secondary antibodies were precomplexed in 5% BSA and 1% goat serum in PBS for 1 hour at 37° C. at a molar ratio of approximately 10:1 of anti-GPNMB or control IgG to secondary biotinylated goat anti-human IgG (Jackson Immunolabs). Complexes were blocked with a 1:2000 dilution of human serum and incubated again for 1 hour at 37° C. Tissue sections were incubated with anti-GPNMB antibody or isotype control antibody complexes diluted in blocking buffer for 1 hour. Sections were washed in 3 changes of PBS for 5 to 10 minutes each and incubated with a 1:200 dilution of streptavidin conjugated horseradish peroxidase (Jackson Immunolabs) in blocking buffer for 30 minutes and then washed as before. Antibody was detected using DAB reagent (Vector labs). […]

TK10 cells = test: FACS anti-GPNMB staining; format: binding, human; conditions: primary antibody 1 μg/mL
GPNMB [3] = biological target: T1, GPNMB; test: ELISA of hybridoma supernatants for binding to GPNMB
Method: After 14 days of culture, hybridoma supernatants were screened for GPNMB specific monoclonal antibodies. In the Primary screen, the ELISA plates (Fisher, Cat. No. 12-565-136) were coated with 50 μL/well of GPNMB (1 μg/mL) in Coating Buffer (0.1 M Carbonate Buffer, pH 9.6, NaHCO3 8.4 g/L), then incubated at 4° C. overnight. After incubation, the plates were washed with Washing Buffer (0.05% Tween 20 in PBS) three times. 200 μL/well Blocking Buffer (0.5% BSA, 0.1% Tween 20, 0.01% Thimerosal in 1×PBS) were added and the plates were incubated at room temperature for 1 h. After incubation, the plates were washed with Washing Buffer three times. Aliquots (50 μL/well) of hybridoma supernatants and positive and negative controls were added, and the plates were incubated at room temperature for 2 h. The positive control used throughout was serum from the relevant GPNMB immunized XenoMouse® mouse and the negative control was serum from the KLH-immunized relevant strain of XenoMouse® mouse. After incubation, the plates were washed three times with Washing Buffer. 100 μL/well of detection antibody goat anti-huIgGfc-HRP (Caltag, Cat. No. H10507, using concentration was 1:2000 dilution) was added and the plates were incubated at room temperature for 1 hour. After incubation, the plates were washed three times with Washing Buffer. 100 μl/well of TMB (BioFX Lab. Cat. No. TMSK-0100-01) was added, and the plates were allowed to develop for about 10 minutes (until negative control wells barely started to show color). 50 μl/well stop solution (TMB Stop Solution (BioFX Lab. Cat. No. STPR-0100-01) was then added and the plates were read on an ELISA plate reader at a wavelength of 450 nm.
Hybridoma supernatants were screened for binding to GPNMB by ELISA as described above in Example 2.

GPNMB [4] = biological target: T1, GPNMB; test: BiaCore 2000 biosensor binding of hybridoma supernatant mAb to GPNMB; conditions: mAb captured on protein A, GPNMB 880 nM, 1:1 kinetic model
Method: Certain Hybridoma cell supernatants (29) were analyzed for binding to GPNMB by BiaCore® 2000 biosensor equipped with a research-grade CMS sensor chip. A 1:25 dilution of cell supernatant was passed over a protein A surface for 5 min followed by washing the surface for 10 mins. Subsequently, GPNMB was injected for 90 sec. over the surface at a concentration of 880 nM followed by dissociation. Double-referenced binding data were obtained by subtracting the signal from a control flow cell and subtracting the baseline drift of a buffer injected just prior to the antigen injection. GPNMB binding ddata for each mAb was normalized for the amount of mAb captured on each surface. Normalized, drift corrected responses were also measured. The sensorgrams were fit to a simple 1:1 kinetic model.

Row | Molecule | Bin (GPNMB [1]) | staining of tissue specimens [2] | Geo Mean Ratio of anti-GPNMB Staining (relative to pK16) (TK10 cells) | Avg OD (GPNMB [3]; 12.3 ng/mL) | Avg OD (GPNMB [3]; 37 ng/mL) | Avg OD (GPNMB [3]; 111 ng/mL) | Avg OD (GPNMB [3]; 333 ng/mL) | Avg OD (GPNMB [3]; 1 μg/mL) | Avg OD (GPNMB [3]; 3 μg/mL) | Kd (GPNMB [4]) [nM] | ka (GPNMB [4]) [M⁻¹ s⁻¹] | kd (GPNMB [4]) [s⁻¹]
1 | B1 | Bin 1 | Positive staining | 1.10 | – | – | – | – | – | – | – | – | –
2 | B2 | – | – | 0.98 | 0.049 | 0.094 | 0.199 | 0.356 | 0.499 | 0.763 | 96 | 9257 | 0.00089
3 | B3 | – | – | – | – | – | – | – | – | – | 122 | 11842 | 0.00144
4 | B4 | – | – | – | – | – | – | – | – | – | 118 | 3955 | 0.000466
